Data: patent US20190315847A1 (UNIVERSITY OF PITTSBURGH OF THE COMMONWEALTH SYSTEM OF …, published 2019)

Molecular target: T1, insulin like growth factor 1 receptor (IGF1R) (human, UniProt P08069 31-736; P08069 741-1367)
T1 construct: Endogenous IGF1R in MCF-7 and T47D breast cancer cells; also called IGF1 receptor; IGFR1
Experiment: in situ proximity ligation assay (Duolink), MCF-7 and T47D cells
Method: In situ proximity ligation assay (PLA) was used to analyze the direct interaction between IGF1R and E-cadherin in breast cancer cells. MCF-7 (FIG. 7A) and T47D (FIG. 7B) cells were plated on coverslips, fixed, and stained with IGF1R and E-cadherin antibody overnight. The Duolink (Sigma) protocol was followed and coverslips were imaged using confocal microscopy to reveal red puncta. MCF-7 cells transfected with anti-CDH1 siRNA (siCDH1; FIG. 7C) or anti-IGF1R siRNA (siIGF1R; FIG. 7D) were used as negative controls for the assay to assess primary antibody specificity. […] All puncta and nuclei in 60× images were counted. One-way ANOVA was used to determine significant difference between groups (p<0.05; one independent experiment, n=5 images per slide counted). Further, IGF1R (green; second column from left) and E-cadherin (red; third column from left) were analyzed for co-localization (merge; fourth column from left) by immunofluorescence staining in MCF-7 cells transfected with siSCR (FIG. 7J) or siCDH1 (FIG. 7K). […]
Cells were plated on coverslips and fixed in 4% paraformaldehyde for 30 minutes at 37° C. […] The ratio of puncta/nuclei for each experimental condition was calculated by counting all puncta and nuclei in five 60× images.

T1 sequence (P08069 31-736, chain 1 of 2): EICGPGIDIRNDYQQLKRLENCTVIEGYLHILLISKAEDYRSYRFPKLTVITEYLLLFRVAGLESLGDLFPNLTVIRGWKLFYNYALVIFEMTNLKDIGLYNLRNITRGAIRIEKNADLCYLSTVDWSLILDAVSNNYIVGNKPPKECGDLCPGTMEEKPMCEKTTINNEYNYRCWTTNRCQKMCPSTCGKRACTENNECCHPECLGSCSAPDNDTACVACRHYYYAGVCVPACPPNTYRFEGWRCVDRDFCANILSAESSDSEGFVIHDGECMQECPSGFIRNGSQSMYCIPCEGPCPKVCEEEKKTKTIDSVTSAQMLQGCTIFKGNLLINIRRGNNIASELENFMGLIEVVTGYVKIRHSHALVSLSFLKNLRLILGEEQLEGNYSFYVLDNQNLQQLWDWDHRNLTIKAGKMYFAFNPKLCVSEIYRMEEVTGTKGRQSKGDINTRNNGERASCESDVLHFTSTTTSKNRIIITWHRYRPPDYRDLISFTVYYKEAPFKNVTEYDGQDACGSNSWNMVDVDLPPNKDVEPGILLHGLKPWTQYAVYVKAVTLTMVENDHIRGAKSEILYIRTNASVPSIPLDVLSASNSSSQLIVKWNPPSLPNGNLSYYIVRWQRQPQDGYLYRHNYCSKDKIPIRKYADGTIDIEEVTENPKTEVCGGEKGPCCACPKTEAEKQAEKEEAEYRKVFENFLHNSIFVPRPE
T1 sequence (P08069 741-1367, chain 2 of 2): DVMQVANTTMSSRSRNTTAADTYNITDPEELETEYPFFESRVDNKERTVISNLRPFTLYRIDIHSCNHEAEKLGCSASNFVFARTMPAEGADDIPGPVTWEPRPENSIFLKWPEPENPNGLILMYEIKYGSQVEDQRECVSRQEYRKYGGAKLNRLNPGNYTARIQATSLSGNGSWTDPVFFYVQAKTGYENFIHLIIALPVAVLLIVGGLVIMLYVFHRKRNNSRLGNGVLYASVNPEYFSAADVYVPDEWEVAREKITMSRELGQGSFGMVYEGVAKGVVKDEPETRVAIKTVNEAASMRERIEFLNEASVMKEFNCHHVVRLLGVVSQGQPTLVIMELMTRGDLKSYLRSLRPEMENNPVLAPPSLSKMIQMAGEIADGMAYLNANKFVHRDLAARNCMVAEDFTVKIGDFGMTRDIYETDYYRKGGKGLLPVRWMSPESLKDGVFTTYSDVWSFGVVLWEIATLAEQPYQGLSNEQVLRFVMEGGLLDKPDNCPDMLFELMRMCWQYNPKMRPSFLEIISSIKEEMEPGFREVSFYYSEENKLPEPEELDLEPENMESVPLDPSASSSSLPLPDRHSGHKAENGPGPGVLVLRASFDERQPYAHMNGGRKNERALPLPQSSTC

binding result: binds
B1: E-cadherin (CDH1) (other)
chain: DWVIPPISCPENEKGPFPKNLVQIKSNKDKEGKVFYSITGQGADTPPVGVFIIERETGWLKVTEPLDRERIATYTLFSHAVSSNGNAVEDPMEILITVTDQNDNKPEFTQEVFKGSVMEGALPGTSVMEVTATDADDDVNTYNAAIAYTILSQDPELPDKNMFTINRNTGVISVVTTGLDRESFPTYTLVVQAADLQGEGLSTTATAVITVTDTNDNPPIFNPTTYKGQVPENEANVVITTLKVTDADAPNTPAWEAVYTILNDDGGQFVVTTNPVNNDGILKTAKGLDFEAKQQYILHVAVTNVVPFEVSLTTSTATVTVDVLDVNEAPIFVPPEKRVEVSEDFGVGQEITSYTAQEPDTFMEQKITYRIWRDTANWLEINPDTGAISTRAELDREDFEHVKNSTYTALIIATDNGSPVATGTGTLLLILSDVNDNAPIPEPRTIFFCERNPKPQVINIIDADLPPNTSPFTAELTHGASANWTIQYNDPTQESIILKPKMALEVGDYKINLKLMDNQNKDQVTTLEVSVCDCEGAAGVCRKAQPVEAGLQIPAILGILGGILALLILILLLLLFLRRRAVVKEPLLPPEDDTRDNVYYYDEEGGGEEDQDFDLSQLHRGLDARPEVTRNDVAPTLMSVPRYLPRPANPDEIGNFIDENLKAADTDPTAPPYDSLLVFDYEGSGSEAASLSSLNSSESDKDQDYDYLNEWGNRFKKLADMYGGGEDD
notes: Endogenous E-cadherin in MCF-7 and T47D breast cancer cells; also called epithelial cadherin; CD324
